The target of test [1] is T1, human glucose-dependent insulinotropic polypeptide (GIP) receptor (human, UniProt P48546 22-466).
T1 sequence (looked up): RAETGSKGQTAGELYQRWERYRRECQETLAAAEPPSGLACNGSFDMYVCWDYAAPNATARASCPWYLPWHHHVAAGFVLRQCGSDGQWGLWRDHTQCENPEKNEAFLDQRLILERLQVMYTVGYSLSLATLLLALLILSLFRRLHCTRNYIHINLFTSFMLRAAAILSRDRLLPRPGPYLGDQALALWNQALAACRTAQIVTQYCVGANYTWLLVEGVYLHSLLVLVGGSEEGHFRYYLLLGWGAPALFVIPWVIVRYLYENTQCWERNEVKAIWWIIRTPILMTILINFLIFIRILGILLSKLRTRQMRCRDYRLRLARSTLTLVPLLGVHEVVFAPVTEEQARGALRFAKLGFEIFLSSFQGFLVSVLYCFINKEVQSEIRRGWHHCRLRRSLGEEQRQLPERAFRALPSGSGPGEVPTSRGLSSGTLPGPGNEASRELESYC
Kind of test: cell-based or functional assay.

Test [2] addresses human glucagon-like peptide-1 (GLP-1) receptor (human, UniProt P43220 24-463). Kind of test: cell-based or functional assay.

*1 amine or outer side, *2 acyl side, *3 side chain or, on linkers, in order; H or OH if unused. Where no end group is shown, it is not given here. Side-chain parts run from the residue outwards. [ ]: non-standard residue; d: D form. The star is where a group is joined. αMePhe(2-F) = C[C@](N)(Cc1ccccc1F)C(=O)O; γGlu = O=C(O)[C@H](CCC(=O)[*:2])N[*:1]; C14 diacid = O=C(O)CCCCCCCCCCCCC(=O)*; εLys = N[C@@H](CCCCN[*:1])C(=O)[*:2]; αMeY = C[C@](N)(Cc1ccc(O)cc1)C(=O)O; αMeL = CC(C)C[C@](C)(N)C(=O)O; Orn = NCCC[C@H](N)C(=O)O; AEEA = NCCOCCOCC(=O)O; Aib = CC(C)(N)C(=O)O

Regarding Y[Aib]EGT[αMePhe(2-F)]TSDV[Aib]I[αMeL]LD[Orn]K([AEEA-AEEA-εLys-C14 diacid])AQ[Aib]EFI[dE][αMeY]LIEGGK([AEEA-AEEA-εLys-C14 diacid])SSGAPPPS-NH2 [Example 163], the “cAMP EC50” value turned out to be 0.0427 nM in test [1] and 0.199 nM in test [2]. Also, the “cAMP Emax” value amounted to 98.2% in test [1] and 86.3% in test [2].

B1: Example 165 (peptide)
peptide: Y[Aib]EGT[αMePhe(2-F)]TSDV[Aib]I[αMeL]LD[Orn]K([εLys-εLys-γGlu-C14 diacid])AQ[Aib]EFI[dE][αMeY]LIEGGK([εLys-εLys-γGlu-C14 diacid])SSGAPPPS-NH2
modifications: N-terminus assumed
SMILES: CC[C@H](C)[C@H](NC(=O)[C@H](CC(C)C)NC(=O)[C@](C)(Cc1ccc(O)cc1)NC(=O)[C@@H](CCC(=O)O)NC(=O)[C@@H](NC(=O)[C@H](Cc1ccccc1)NC(=O)[C@H](CCC(=O)O)NC(=O)C(C)(C)NC(=O)[C@H](CCC(N)=O)NC(=O)[C@H](C)NC(=O)[C@H](CCCCNC(=O)[C@@H](N)CCCCNC(=O)[C@@H](N)CCCCNC(=O)CC[C@H](NC(=O)CCCCCCCCCCCCC(=O)O)C(=O)O)NC(=O)[C@H](CCCN)NC(=O)[C@H](CC(=O)O)NC(=O)[C@H](CC(C)C)NC(=O)[C@](C)(CC(C)C)NC(=O)[C@@H](NC(=O)C(C)(C)NC(=O)[C@@H](NC(=O)[C@H](CC(=O)O)NC(=O)[C@H](CO)NC(=O)[C@@H](NC(=O)[C@](C)(Cc1ccccc1F)NC(=O)[C@@H](NC(=O)CNC(=O)[C@H](CCC(=O)O)NC(=O)C(C)(C)NC(=O)[C@@H](N)Cc1ccc(O)cc1)[C@@H](C)O)[C@@H](C)O)C(C)C)[C@@H](C)CC)[C@@H](C)CC)C(=O)N[C@@H](CCC(=O)O)C(=O)NCC(=O)NCC(=O)N[C@@H](CCCCNC(=O)[C@@H](N)CCCCNC(=O)[C@@H](N)CCCCNC(=O)CC[C@H](NC(=O)CCCCCCCCCCCCC(=O)O)C(=O)O)C(=O)N[C@@H](CO)C(=O)N[C@@H](CO)C(=O)NCC(=O)N[C@@H](C)C(=O)N1CCC[C@H]1C(=O)N1CCC[C@H]1C(=O)N1CCC[C@H]1C(=O)N[C@@H](CO)C(N)=O
As to B1, the entries for the “cAMP EC50” value in test [1] and in test [2] were 0.0442 nM and 0.291 nM, respectively. For the same molecule, in test [1], the “cAMP Emax” value amounted to 96.1%.

B2: Example 164 (peptide)
peptide: Y[Aib]EGT[αMePhe(2-F)]TSDV[Aib]I[αMeL]LD[Orn]K([εLys-γGlu-C14 diacid])AQ[Aib]EFI[dE][αMeY]LIEGGK([εLys-γGlu-C14 diacid])SSGAPPPS-NH2
modifications: N-terminus assumed
SMILES: CC[C@H](C)[C@H](NC(=O)[C@H](CC(C)C)NC(=O)[C@](C)(Cc1ccc(O)cc1)NC(=O)[C@@H](CCC(=O)O)NC(=O)[C@@H](NC(=O)[C@H](Cc1ccccc1)NC(=O)[C@H](CCC(=O)O)NC(=O)C(C)(C)NC(=O)[C@H](CCC(N)=O)NC(=O)[C@H](C)NC(=O)[C@H](CCCCNC(=O)[C@@H](N)CCCCNC(=O)CC[C@H](NC(=O)CCCCCCCCCCCCC(=O)O)C(=O)O)NC(=O)[C@H](CCCN)NC(=O)[C@H](CC(=O)O)NC(=O)[C@H](CC(C)C)NC(=O)[C@](C)(CC(C)C)NC(=O)[C@@H](NC(=O)C(C)(C)NC(=O)[C@@H](NC(=O)[C@H](CC(=O)O)NC(=O)[C@H](CO)NC(=O)[C@@H](NC(=O)[C@](C)(Cc1ccccc1F)NC(=O)[C@@H](NC(=O)CNC(=O)[C@H](CCC(=O)O)NC(=O)C(C)(C)NC(=O)[C@@H](N)Cc1ccc(O)cc1)[C@@H](C)O)[C@@H](C)O)C(C)C)[C@@H](C)CC)[C@@H](C)CC)C(=O)N[C@@H](CCC(=O)O)C(=O)NCC(=O)NCC(=O)N[C@@H](CCCCNC(=O)[C@@H](N)CCCCNC(=O)CC[C@H](NC(=O)CCCCCCCCCCCCC(=O)O)C(=O)O)C(=O)N[C@@H](CO)C(=O)N[C@@H](CO)C(=O)NCC(=O)N[C@@H](C)C(=O)N1CCC[C@H]1C(=O)N1CCC[C@H]1C(=O)N1CCC[C@H]1C(=O)N[C@@H](CO)C(N)=O
With B2, in test [1], the “cAMP EC50” value came out at 0.0464 nM and the “cAMP Emax” value came out at 95.8%. For the same molecule, in test [2], the “cAMP EC50” value was 0.236 nM.

Values taken from patent publication US20230265151A1, “GIP/GLP1 CO-AGONIST COMPOUNDS” (priority 2020, published 2023).
